In the supplement of paper PMC9112550, “Optimization of the antimicrobial peptide Bac7 by deep mutational scanning” (BMC Biology, 2022):

Test system: Escherichia coli TOP10
Assay: shrunken log2 fold change of peptide-encoding DNA abundance (4.5 h post-induction vs induction); higher = less antimicrobial activity (less host growth inhibition)
Settings: time post-induction: 4.5 h; library: site-saturation at positions 5, 18, 19, 20
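Further: peptides expressed intracellularly from a pBAD plasmid library in pooled LB shake-flask culture, induced with 0.3% L-arabinose, DNA abundance read by NGS, three biological replicates, DESeq2 with apeglm shrinkage.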

Row | Sequence | shrunken log2 fold change
1 | RRIRTRPPRLPRPRPRPCGLPRP | 0.165
2 | RRIRDRPPRLPRPRPRPNDLPRP | 0.124
3 | RRIRPRPPRLPRPRPRPAEPPRP | -0.0331
4 | RRIRARPPRLPRPRPRPSEMPRP | 0.29
5 | RRIRTRPPRLPRPRPRPNMVPRP | -0.0672
6 | RRIRARPPRLPRPRPRPRLVPRP | 0.512
7 | RRIRNRPPRLPRPRPRPCLNPRP | -0.0299
8 | RRIRKRPPRLPRPRPRPIEKPRP | 0.694
9 | RRIRLRPPRLPRPRPRPWMWPRP | 0.154
10 | RRIRQRPPRLPRPRPRPTTFPRP | -0.485
11 | RRIRCRPPRLPRPRPRPYRTPRP | -0.132
12 | RRIRVRPPRLPRPRPRPAMSPRP | -0.096
13 | RRIRQRPPRLPRPRPRPQYLPRP | -0.131
14 | RRIRLRPPRLPRPRPRPIDRPRP | -0.241
15 | RRIRQRPPRLPRPRPRPQILPRP | -0.132
16 | RRIRTRPPRLPRPRPRPTQLPRP | -0.319
17 | RRIRFRPPRLPRPRPRPSPWPRP | 1.82
18 | RRIRFRPPRLPRPRPRPEGCPRP | 0.013
19 | RRIRKRPPRLPRPRPRPICQPRP | -0.0166
20 | RRIRDRPPRLPRPRPRPALAPRP | 1.32
21 | RRIRHRPPRLPRPRPRPHCVPRP | -0.01
22 | RRIRGRPPRLPRPRPRPWIPPRP | -0.429
23 | RRIRLRPPRLPRPRPRPNECPRP | -0.0751
24 | RRIRYRPPRLPRPRPRPVKWPRP | 0.0689
25 | RRIRPRPPRLPRPRPRPPRNPRP | 0.315

Row | Sequence | shrunken log2 fold change
26 | RRIRVRPPRLPRPRPRPQDEPRP | -0.114
27 | RRIRKRPPRLPRPRPRPLHKPRP | 0.342
28 | RRIRIRPPRLPRPRPRPNWLPRP | -0.0339
29 | RRIRIRPPRLPRPRPRPRVEPRP | -0.0648
30 | RRIRFRPPRLPRPRPRPNKYPRP | -0.684
31 | RRIRRRPPRLPRPRPRPGPSPRP | 0.442
32 | RRIRRRPPRLPRPRPRPFGRPRP | 0.114
33 | RRIRDRPPRLPRPRPRPDVFPRP | 0.07
34 | RRIRSRPPRLPRPRPRPPWPPRP | 0.51
35 | RRIRGRPPRLPRPRPRPTMCPRP | 0.805
36 | RRIRKRPPRLPRPRPRPLVTPRP | 0.24
37 | RRIRARPPRLPRPRPRPYSRPRP | -0.0171
38 | RRIRQRPPRLPRPRPRPILMPRP | 0.0271
39 | RRIRRRPPRLPRPRPRPALEPRP | 0.264
40 | RRIRHRPPRLPRPRPRPNAPPRP | 0.0964
41 | RRIRHRPPRLPRPRPRPDYSPRP | -0.657
42 | RRIRKRPPRLPRPRPRPPGFPRP | 0.55
43 | RRIRFRPPRLPRPRPRPDNAPRP | -0.167
44 | RRIRARPPRLPRPRPRPNFRPRP | 0.376
45 | RRIRDRPPRLPRPRPRPMVQPRP | -0.00146
46 | RRIRERPPRLPRPRPRPDIRPRP | -0.0427
47 | RRIRTRPPRLPRPRPRPETWPRP | -0.0622
48 | RRIRHRPPRLPRPRPRPIGPPRP | -0.00697
49 | RRIRIRPPRLPRPRPRPYVSPRP | -0.518
50 | RRIRRRPPRLPRPRPRPNTMPRP | -0.262

Row | Sequence | shrunken log2 fold change
51 | RRIRQRPPRLPRPRPRPSPTPRP | 0.292
52 | RRIRKRPPRLPRPRPRPNVYPRP | -0.0771
53 | RRIRGRPPRLPRPRPRPKVWPRP | 0.665
54 | RRIRFRPPRLPRPRPRPIHHPRP | -0.0432
55 | RRIRSRPPRLPRPRPRPSESPRP | -0.198
56 | RRIRLRPPRLPRPRPRPPWSPRP | 0.259
57 | RRIRSRPPRLPRPRPRPKTTPRP | 0.103
58 | RRIRSRPPRLPRPRPRPHMLPRP | -0.104
59 | RRIRWRPPRLPRPRPRPFIGPRP | -0.38
60 | RRIRTRPPRLPRPRPRPRLWPRP | 0.154
61 | RRIRPRPPRLPRPRPRPVGPPRP | 0.427
62 | RRIRVRPPRLPRPRPRPYHVPRP | -0.055
63 | RRIRWRPPRLPRPRPRPRCSPRP | 0.362
64 | RRIRMRPPRLPRPRPRPSISPRP | 0.000307
65 | RRIRWRPPRLPRPRPRPFHDPRP | -0.285
66 | RRIRARPPRLPRPRPRPQTDPRP | 0.275
67 | RRIRMRPPRLPRPRPRPRTCPRP | 0.00872
68 | RRIRNRPPRLPRPRPRPRLRPRP | 0.0785
69 | RRIRIRPPRLPRPRPRPEFNPRP | -0.0922
70 | RRIRQRPPRLPRPRPRPSASPRP | 0.0788
71 | RRIRPRPPRLPRPRPRPFSFPRP | -0.0166
72 | RRIRQRPPRLPRPRPRPPHQPRP | 0.363
73 | RRIRYRPPRLPRPRPRPMMHPRP | -0.626
74 | RRIRVRPPRLPRPRPRPENLPRP | -0.111
75 | RRIRDRPPRLPRPRPRPSDPPRP | -0.0499
